Data on 1 molecule can be found in PMC6854080, “Increased Mosquito Midgut Infection by Dengue Virus Recruitment of Plasmin Is Blocked by an Endogenous Kazal-type Inhibitor” (iScience, 2019).

The test has as its target T1, recombinant AaTI (Aedes aegypti Kazal-type serine protease inhibitor) (Aedes aegypti, UniProt Q177W0 23-91).
T1 construct: recombinant protein of 9.85 kDa inclusive of His-tag; also called rAaTI; wild-type rAaTI; source: bacterial system, purified
T1 sequence (looked up): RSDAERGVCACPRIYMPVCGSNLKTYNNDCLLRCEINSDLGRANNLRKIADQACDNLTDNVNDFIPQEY
As to the kind of experiment: BLI; rAaTI-preloaded biosensors immersed into plasmin solutions of different concentrations; association and dissociation curves fitted globally to 1:1 kinetics. The settings on record: both partners purified. For orientation: Biolayer interferometry detects binding as a change in optical thickness at a sensor tip.

B1: human plasmin (enzyme)
chain 1: KVYLSECKTGNGKNYRGTMSKTKNGITCQKWSSTSPHRPRFSPATHPSEGLEENYCRNPDNDPQGPWCYTTDPEKRYDYCDILECEEECMHCSGENYDGKISKTMSGLECQAWDSQSPHAHGYIPSKFPNKNLKKNYCRNPDRELRPWCFTTDPNKRWELCDIPRCTTPPPSSGPTYQCLKGTGENYRGNVAVTVSGHTCQHWSAQTPHTHNRTPENFPCKNLDENYCRNPDGKRAPWCHTTNSQVRWEYCKIPSCDSSPVSTEQLAPTAPPELTPVVQDCYHGDGQSYRGTSSTTTTGKKCQSWSSMTPHRHQKTPENYPNAGLTMNYCRNPDADKGPWCFTTDPSVRWEYCNLKKCSGTEASVVAPPPVVLLPDVETPSEEDCMFGNGKGYRGKRATTVTGTPCQDWAAQEPHRHSIFTPETNPRAGLEKNYCRNPDGDVGGPWCYTTNPRKLYDYCDVPQCAAPSFDCGKPQVEPKKCPGR
chain 2: VVGGCVAHPHSWPWQVSLRTRFGMHFCGGTLISPEWVLTAAHCLEKSPRPSSYKVILGAHQEVNLEPHVQEIEVSRLFLEPTRKDIALLKLSSPAVITDKVIPACLPSPNYVVADRTECFITGWGETQGTFGAGLLKEAQLPVIENKVCNRYEFLNGRVQSTELCAGHLAGGTDSCQGDSGGPLVCFEKDKYILQGVTSWGLGCARPNKPGVYVRVSRFVTWIEGVMRNN
modifications: active two-chain plasmin (Lys-plasmin limits from the UniProt chain features; the paper prints none), heavy and light chains joined by interchain disulfides; natural glycosylation
With B1, the Kd was 62.8 nM.

As usually defined, the Kd is the equilibrium constant for the complex coming apart.
